Measured values as given in PMC3627495.

Tests used:
[1] = biological target: His-YFP-EB3 S162E and His-CFP-EB3 S162E, full-length phospho-mimetic mutant (human) (UniProt Q9UPY8); assay: FRET or BRET
[2] = biological target: His-YFP-EB3 and His-CFP-EB3, full-length wild type (human) (UniProt Q9UPY8); assay: FRET or BRET

| t1/2 of chain exchange [1] [h] | t1/2 of chain exchange [2] [h] | Substance |
| --- | --- | --- |
| 1.39 | 1.01 | His-YFP-EB3 S162E and His-CFP-EB3 S162E, full-length phospho-mimetic mutant (from UniProt Q9UPY8 1-281) (natural protein) |
|  | 2.66 | His-YFP-EB3 and His-CFP-EB3, full-length wild type (from UniProt Q9UPY8 1-281) (natural protein) |
